The values below come from patent US20230220042A1 (SHANGHAI JIAO TONG UNIVERSITY SCHOOL OF MEDICINE, published 2023).

For this assay, the target named is T1, Biotin-FcγRIIB (human, UniProt P31994 43-217, limits assumed, biotin-labelled).
T1 construct: Bought, biotin-labelled; used at 1 µg/ml for staining and sorting; also called human FcγRIIB; CD32b
T1 sequence (looked up): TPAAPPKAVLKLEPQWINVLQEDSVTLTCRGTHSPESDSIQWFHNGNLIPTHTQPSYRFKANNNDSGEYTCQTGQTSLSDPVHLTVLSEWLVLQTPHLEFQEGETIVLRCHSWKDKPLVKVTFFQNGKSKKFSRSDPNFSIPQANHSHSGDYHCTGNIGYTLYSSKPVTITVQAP
Put plainly: FACS sorting of displayed Fc library on biotin-FcγRIIB, NGS.

B1: human IgG2 anti-mouse CD40 surface displayed antibody, Fc mutant A330R (antibody, name in EU numbering)
light chain (with the P2A rest): DTVLTQSPALAVSPGERVTISCRASDSVSTLMHWYQQKPGQQPKLLIYLASHLESGVPARFSGSGSGTDFTLTIDPVEADDTATYYCQQSWNDPWTFGGGTKLELKRTVAAPSVFIFPPSDEQLKSGTASVVCLLNNFYPREAKVQWKVDNALQSGNSQESVTEQDSKDSTYSLSSTLTLSKADYEKHKVYACEVTHQGLSSPVTKSFNRGECGSGATNFSLLKQAGDVEENPG
heavy chain: EVQLVESDGGLVQPGRSLKLPCAASGFTFSDYYMAWVRQAPTKGLEWVASISYDGSSTYYRDSVKGRFTISRDNAKSTLYLQMDSLRSEDTATYYCGRHSSYFDYWGQGVMVTVSSASTKGPSVFPLAPCSRSTSESTAALGCLVKDYFPEPVTVSWNSGALTSGVHTFPAVLQSSGLYSLSSVVTVPSSNFGTQTYTCNVDHKPSNTKVDKTVERKCCVECPPCPAPPVAGPSVFLFPPKPKDTLMISRTPEVTCVVVDVSHEDPEVQFNWYVDGVEVHNAKTKPREEQFNSTFRVVSVLTVVHQDWLNGKEYKCKVSNKGLPRPIEKTISKTKGQPREPQVYTLPPSREEMTKNQVSLTCLVKGFYPSDIAVEWESNGQPENNYKTTPPMLDSDGSFFLYSKLTVDKSRWQQGNVFSCSVMHEALHNHYTQKSLSLSPGKLEPPPSTVSNMATVAVLVVLGAAIVTGAVVAFVMKMRRRNTGGKGGDYALAPGSQTSDLSLPDCKVMVHDPHSLA
notes: as m1; positions are Eu numbers; copies: 2 + 2
Take B1: the “Increased factor b Site 2 (point mutation/wild-type)” value is 0.

B2: human IgG2 anti-mouse CD40 surface displayed antibody, Fc mutant G327A (antibody, name in EU numbering)
light chain (with the P2A rest): DTVLTQSPALAVSPGERVTISCRASDSVSTLMHWYQQKPGQQPKLLIYLASHLESGVPARFSGSGSGTDFTLTIDPVEADDTATYYCQQSWNDPWTFGGGTKLELKRTVAAPSVFIFPPSDEQLKSGTASVVCLLNNFYPREAKVQWKVDNALQSGNSQESVTEQDSKDSTYSLSSTLTLSKADYEKHKVYACEVTHQGLSSPVTKSFNRGECGSGATNFSLLKQAGDVEENPG
heavy chain: EVQLVESDGGLVQPGRSLKLPCAASGFTFSDYYMAWVRQAPTKGLEWVASISYDGSSTYYRDSVKGRFTISRDNAKSTLYLQMDSLRSEDTATYYCGRHSSYFDYWGQGVMVTVSSASTKGPSVFPLAPCSRSTSESTAALGCLVKDYFPEPVTVSWNSGALTSGVHTFPAVLQSSGLYSLSSVVTVPSSNFGTQTYTCNVDHKPSNTKVDKTVERKCCVECPPCPAPPVAGPSVFLFPPKPKDTLMISRTPEVTCVVVDVSHEDPEVQFNWYVDGVEVHNAKTKPREEQFNSTFRVVSVLTVVHQDWLNGKEYKCKVSNKALPAPIEKTISKTKGQPREPQVYTLPPSREEMTKNQVSLTCLVKGFYPSDIAVEWESNGQPENNYKTTPPMLDSDGSFFLYSKLTVDKSRWQQGNVFSCSVMHEALHNHYTQKSLSLSPGKLEPPPSTVSNMATVAVLVVLGAAIVTGAVVAFVMKMRRRNTGGKGGDYALAPGSQTSDLSLPDCKVMVHDPHSLA
notes: as for B1
For the molecule B2, the “Increased factor b Site 1 (point mutation/wild-type)” value was 3.4.

B3: human IgG2 anti-mouse CD40 surface displayed antibody, Fc mutant L328E (antibody, name in EU numbering)
light chain (with the P2A rest): DTVLTQSPALAVSPGERVTISCRASDSVSTLMHWYQQKPGQQPKLLIYLASHLESGVPARFSGSGSGTDFTLTIDPVEADDTATYYCQQSWNDPWTFGGGTKLELKRTVAAPSVFIFPPSDEQLKSGTASVVCLLNNFYPREAKVQWKVDNALQSGNSQESVTEQDSKDSTYSLSSTLTLSKADYEKHKVYACEVTHQGLSSPVTKSFNRGECGSGATNFSLLKQAGDVEENPG
heavy chain: EVQLVESDGGLVQPGRSLKLPCAASGFTFSDYYMAWVRQAPTKGLEWVASISYDGSSTYYRDSVKGRFTISRDNAKSTLYLQMDSLRSEDTATYYCGRHSSYFDYWGQGVMVTVSSASTKGPSVFPLAPCSRSTSESTAALGCLVKDYFPEPVTVSWNSGALTSGVHTFPAVLQSSGLYSLSSVVTVPSSNFGTQTYTCNVDHKPSNTKVDKTVERKCCVECPPCPAPPVAGPSVFLFPPKPKDTLMISRTPEVTCVVVDVSHEDPEVQFNWYVDGVEVHNAKTKPREEQFNSTFRVVSVLTVVHQDWLNGKEYKCKVSNKGEPAPIEKTISKTKGQPREPQVYTLPPSREEMTKNQVSLTCLVKGFYPSDIAVEWESNGQPENNYKTTPPMLDSDGSFFLYSKLTVDKSRWQQGNVFSCSVMHEALHNHYTQKSLSLSPGKLEPPPSTVSNMATVAVLVVLGAAIVTGAVVAFVMKMRRRNTGGKGGDYALAPGSQTSDLSLPDCKVMVHDPHSLA
notes: as for B1
Turning to B3, the “Increased factor b Site 1 (point mutation/wild-type)” value came out at 0.1.

B4: human IgG2 anti-mouse CD40 surface displayed antibody, Fc mutant L328E/I332T (antibody, name in EU numbering)
light chain (with the P2A rest): DTVLTQSPALAVSPGERVTISCRASDSVSTLMHWYQQKPGQQPKLLIYLASHLESGVPARFSGSGSGTDFTLTIDPVEADDTATYYCQQSWNDPWTFGGGTKLELKRTVAAPSVFIFPPSDEQLKSGTASVVCLLNNFYPREAKVQWKVDNALQSGNSQESVTEQDSKDSTYSLSSTLTLSKADYEKHKVYACEVTHQGLSSPVTKSFNRGECGSGATNFSLLKQAGDVEENPG
heavy chain: EVQLVESDGGLVQPGRSLKLPCAASGFTFSDYYMAWVRQAPTKGLEWVASISYDGSSTYYRDSVKGRFTISRDNAKSTLYLQMDSLRSEDTATYYCGRHSSYFDYWGQGVMVTVSSASTKGPSVFPLAPCSRSTSESTAALGCLVKDYFPEPVTVSWNSGALTSGVHTFPAVLQSSGLYSLSSVVTVPSSNFGTQTYTCNVDHKPSNTKVDKTVERKCCVECPPCPAPPVAGPSVFLFPPKPKDTLMISRTPEVTCVVVDVSHEDPEVQFNWYVDGVEVHNAKTKPREEQFNSTFRVVSVLTVVHQDWLNGKEYKCKVSNKGEPAPTEKTISKTKGQPREPQVYTLPPSREEMTKNQVSLTCLVKGFYPSDIAVEWESNGQPENNYKTTPPMLDSDGSFFLYSKLTVDKSRWQQGNVFSCSVMHEALHNHYTQKSLSLSPGKLEPPPSTVSNMATVAVLVVLGAAIVTGAVVAFVMKMRRRNTGGKGGDYALAPGSQTSDLSLPDCKVMVHDPHSLA
notes: as for B1
With B4, the “Enrichment factor (after/before sorting)” value was 55.1 and the “Increased factor a (enrichment factor/wild-type enrichment factor)” value came to 36.9.

B5: human IgG2 anti-mouse CD40 surface displayed antibody, Fc mutant I332C (antibody, name in EU numbering)
light chain (with the P2A rest): DTVLTQSPALAVSPGERVTISCRASDSVSTLMHWYQQKPGQQPKLLIYLASHLESGVPARFSGSGSGTDFTLTIDPVEADDTATYYCQQSWNDPWTFGGGTKLELKRTVAAPSVFIFPPSDEQLKSGTASVVCLLNNFYPREAKVQWKVDNALQSGNSQESVTEQDSKDSTYSLSSTLTLSKADYEKHKVYACEVTHQGLSSPVTKSFNRGECGSGATNFSLLKQAGDVEENPG
heavy chain: EVQLVESDGGLVQPGRSLKLPCAASGFTFSDYYMAWVRQAPTKGLEWVASISYDGSSTYYRDSVKGRFTISRDNAKSTLYLQMDSLRSEDTATYYCGRHSSYFDYWGQGVMVTVSSASTKGPSVFPLAPCSRSTSESTAALGCLVKDYFPEPVTVSWNSGALTSGVHTFPAVLQSSGLYSLSSVVTVPSSNFGTQTYTCNVDHKPSNTKVDKTVERKCCVECPPCPAPPVAGPSVFLFPPKPKDTLMISRTPEVTCVVVDVSHEDPEVQFNWYVDGVEVHNAKTKPREEQFNSTFRVVSVLTVVHQDWLNGKEYKCKVSNKGLPAPCEKTISKTKGQPREPQVYTLPPSREEMTKNQVSLTCLVKGFYPSDIAVEWESNGQPENNYKTTPPMLDSDGSFFLYSKLTVDKSRWQQGNVFSCSVMHEALHNHYTQKSLSLSPGKLEPPPSTVSNMATVAVLVVLGAAIVTGAVVAFVMKMRRRNTGGKGGDYALAPGSQTSDLSLPDCKVMVHDPHSLA
notes: as for B1
As for B5, the “Increased factor b Site 2 (point mutation/wild-type)” value amounted to 2.7.

B6: human IgG2 anti-mouse CD40 surface displayed antibody, Fc mutant I332A (antibody, name in EU numbering)
light chain (with the P2A rest): DTVLTQSPALAVSPGERVTISCRASDSVSTLMHWYQQKPGQQPKLLIYLASHLESGVPARFSGSGSGTDFTLTIDPVEADDTATYYCQQSWNDPWTFGGGTKLELKRTVAAPSVFIFPPSDEQLKSGTASVVCLLNNFYPREAKVQWKVDNALQSGNSQESVTEQDSKDSTYSLSSTLTLSKADYEKHKVYACEVTHQGLSSPVTKSFNRGECGSGATNFSLLKQAGDVEENPG
heavy chain: EVQLVESDGGLVQPGRSLKLPCAASGFTFSDYYMAWVRQAPTKGLEWVASISYDGSSTYYRDSVKGRFTISRDNAKSTLYLQMDSLRSEDTATYYCGRHSSYFDYWGQGVMVTVSSASTKGPSVFPLAPCSRSTSESTAALGCLVKDYFPEPVTVSWNSGALTSGVHTFPAVLQSSGLYSLSSVVTVPSSNFGTQTYTCNVDHKPSNTKVDKTVERKCCVECPPCPAPPVAGPSVFLFPPKPKDTLMISRTPEVTCVVVDVSHEDPEVQFNWYVDGVEVHNAKTKPREEQFNSTFRVVSVLTVVHQDWLNGKEYKCKVSNKGLPAPAEKTISKTKGQPREPQVYTLPPSREEMTKNQVSLTCLVKGFYPSDIAVEWESNGQPENNYKTTPPMLDSDGSFFLYSKLTVDKSRWQQGNVFSCSVMHEALHNHYTQKSLSLSPGKLEPPPSTVSNMATVAVLVVLGAAIVTGAVVAFVMKMRRRNTGGKGGDYALAPGSQTSDLSLPDCKVMVHDPHSLA
notes: as for B1
With B6, the “Increased factor b Site 2 (point mutation/wild-type)” value worked out at 16.4.

B7: human IgG2 anti-mouse CD40 surface displayed antibody, Fc mutant P271C (antibody, name in EU numbering)
light chain (with the P2A rest): DTVLTQSPALAVSPGERVTISCRASDSVSTLMHWYQQKPGQQPKLLIYLASHLESGVPARFSGSGSGTDFTLTIDPVEADDTATYYCQQSWNDPWTFGGGTKLELKRTVAAPSVFIFPPSDEQLKSGTASVVCLLNNFYPREAKVQWKVDNALQSGNSQESVTEQDSKDSTYSLSSTLTLSKADYEKHKVYACEVTHQGLSSPVTKSFNRGECGSGATNFSLLKQAGDVEENPG
heavy chain: EVQLVESDGGLVQPGRSLKLPCAASGFTFSDYYMAWVRQAPTKGLEWVASISYDGSSTYYRDSVKGRFTISRDNAKSTLYLQMDSLRSEDTATYYCGRHSSYFDYWGQGVMVTVSSASTKGPSVFPLAPCSRSTSESTAALGCLVKDYFPEPVTVSWNSGALTSGVHTFPAVLQSSGLYSLSSVVTVPSSNFGTQTYTCNVDHKPSNTKVDKTVERKCCVECPPCPAPPVAGPSVFLFPPKPKDTLMISRTPEVTCVVVDVSHEDCEVQFNWYVDGVEVHNAKTKPREEQFNSTFRVVSVLTVVHQDWLNGKEYKCKVSNKGLPAPIEKTISKTKGQPREPQVYTLPPSREEMTKNQVSLTCLVKGFYPSDIAVEWESNGQPENNYKTTPPMLDSDGSFFLYSKLTVDKSRWQQGNVFSCSVMHEALHNHYTQKSLSLSPGKLEPPPSTVSNMATVAVLVVLGAAIVTGAVVAFVMKMRRRNTGGKGGDYALAPGSQTSDLSLPDCKVMVHDPHSLA
notes: as for B1
B7: the “Increased factor b Site 2 (point mutation/wild-type)” value came to 29.9.
